The results in this text go back to article PMC11564643.

Assay [1] has as its target dynamic microtubules grown from GMPCPP stabilized seeds (porcine brain tubulin) (porcine) (UniProt P02550). Kind of assay: FRAP (TIRF microscopy on dynamic microtubules); set-up of the buckling experiment; EB3 and HSET bleached together (488 and 561 nm lasers at 100% for 50 frames), recovery followed at free tips and in antiparallel overlaps.
For assay [2] the target is unchanged.

As to “mGFP-EB3 homodimer (from UniProt Q9UPY8 1-281) (natural protein)”, in assay [1], the fluorescence recovery time at single microtubule tips (in the presence of HSET) is 6 s and the fold slower turnover at tips in antiparallel overlaps (with HSET) against single tips amounted to 3 fold.
The substance “biotinylated EB3 dimers coupled directly to streptavidin beads (from UniProt Q9UPY8 1-281) (natural protein)” returned a force on a streptavidin bead coated directly with a saturating amount of biotinylated EB3 dimers, optical trap at a growing microtubule tip in assay [2] of 0.5 pN.
